Experiments:
[1] = biological target: T1, cynomolgus monkey FcRn/β2m (cynomolgus monkey, UniProt Q8SPV9 24-297; Q8SPW0 21-119, limits assumed); test: SPR, immobilised antibody, cyno FcRn/b2m analyte, pH 6.0
T1 construct: injected in solution over immobilised antibody; also called Cyno FcRn/β2m
Protocol: (§1) Anti-C2 mAbs (1 μg/mL at pH 5) were immobilized on a carboxylmethyldextran (CM5) sensorchip surface using standard EDC/NHS chemistry. Human and Cyno FcRn/β2m (40 μM) were prepared in running buffer (10 mM HEPES, 150 mM NaCl, 10 mM MES adjusted to either pH 6 or pH 7.3) and injected on the immobilized anti-C2 surface at concentrations ranging from 0.078 to 40 μM, prepared in two-fold dilutions in running buffer. Association and dissociation phases were monitored for 180 and 600 seconds, respectively. […] Double referenced sensorgrams were fitted to either a 1:1 kinetic model (pH 6), including a term for mass transport limitation or to a 1:1 steady state model (pH 7.3) where responses at the end of the association phase were plotted against respective concentrations.
(§2) Binding to both human and cynomolgus monkey FcRn was tested using the SPR methods described above.

[2] = biological target: T1, cynomolgus monkey FcRn/β2m; test: SPR, immobilised antibody, cyno FcRn/b2m analyte, pH 7.3
Protocol: as §1, §2

[3] = biological target: T2, human complement C2 zymogen (human, UniProt P06681 21-752); test: SPR kinetics, captured antibody, analyte huC2 0 mM Ca^2+, pH 7.3
T2 construct: also called huC2; human C2
T2 sequence: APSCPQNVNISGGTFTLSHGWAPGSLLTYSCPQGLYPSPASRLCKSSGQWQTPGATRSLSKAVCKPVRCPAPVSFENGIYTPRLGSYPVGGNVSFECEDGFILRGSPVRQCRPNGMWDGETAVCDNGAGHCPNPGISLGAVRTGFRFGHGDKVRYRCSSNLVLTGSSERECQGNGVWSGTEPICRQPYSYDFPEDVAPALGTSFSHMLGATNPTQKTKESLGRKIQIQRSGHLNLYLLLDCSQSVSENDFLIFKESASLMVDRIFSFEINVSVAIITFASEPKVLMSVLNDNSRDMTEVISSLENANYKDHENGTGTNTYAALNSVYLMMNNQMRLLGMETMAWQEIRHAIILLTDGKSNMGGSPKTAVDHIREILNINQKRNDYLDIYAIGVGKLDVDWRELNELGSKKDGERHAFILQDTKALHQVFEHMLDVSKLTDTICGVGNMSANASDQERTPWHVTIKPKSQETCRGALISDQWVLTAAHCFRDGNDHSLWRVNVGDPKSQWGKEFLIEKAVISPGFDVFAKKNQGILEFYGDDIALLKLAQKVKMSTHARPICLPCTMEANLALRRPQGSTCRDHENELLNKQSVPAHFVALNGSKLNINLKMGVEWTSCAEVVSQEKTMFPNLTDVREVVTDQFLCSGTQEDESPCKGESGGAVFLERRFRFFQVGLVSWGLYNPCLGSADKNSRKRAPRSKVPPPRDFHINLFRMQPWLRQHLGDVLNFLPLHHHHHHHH
Protocol: (§3) Surface plasmon resonance (SPR, Biacore) was used for all binding affinity analyses. In brief, goat anti-human IgG was directly immobilised onto the carboxymethyl dextran surface of CM5 sensorchips to approximately 12,000 RU using standard NHS/EDC chemistry at pH 5. The immobilised antibody surface was pre-conditioned with ten injections of polyclonal human IgG (Privigen 60 s) prepared at 1 μg/mL. Ligands (anti-C2 mAbs) were captured at the beginning of each cycle as described below. An adjacent spot or flow cell in which only Polyclonal IgG was capture was used as a reference surface. The goat anti-human IgG Fc antibody surface was regenerate in 100 mM H3PO4, injected for 45 seconds at the end of each cycle. Experiments were performed at 37° C. and the flow rate of each experiment was kept constant at 30 μL/min.

[4] = biological target: T2, human complement C2 zymogen; test: SPR kinetics, captured antibody, analyte huC2 (so in the source), pH 7.3
Protocol: as §3

[5] = biological target: T2, human complement C2 zymogen; test: SPR steady state, captured antibody, analyte huC2 0 mM Ca^2+, pH 6.0
[6] = biological target: T2, human complement C2 zymogen; test: SPR kinetics, captured antibody, analyte huC2 20 mM Ca^2+ (so in the source), pH 7.3
Protocol: as §3

[7] = biological target: T2, human complement C2 zymogen; test: SPR kinetics, captured antibody, analyte huC2 200 mM Ca^2+ (so in the source), pH 7.3
Protocol: as §3

[8] = biological target: T2, human complement C2 zymogen; test: SPR kinetics, captured antibody, analyte huC2 2000 mM Ca^2+ (so in the source), pH 7.3
Protocol: as §3

[9] = biological target: T2, human complement C2 zymogen; test: SPR steady state, captured antibody, analyte huC2 20 mM Ca^2+ (so in the source), pH 6.0
[10] = biological target: T2, human complement C2 zymogen; test: SPR steady state, captured antibody, analyte huC2 200 mM Ca^2+ (so in the source), pH 6.0
[11] = biological target: T2, human complement C2 zymogen; test: SPR steady state, captured antibody, analyte huC2 2000 mM Ca^2+ (so in the source), pH 6.0
[12] = biological target: T1, cynomolgus monkey FcRn/β2m; test: SPR, immobilised antibody, cyno FcRn/b2m analyte, pH 6.0; pH 6.0
Protocol: as §1, §2

[13] = biological target: T2, human complement C2 zymogen; test: SPR kinetics, captured antibody, analyte huC2 0 mM Ca^2+, pH 7.3; remark: listed apart in the source
Protocol: as §3
(§4) Sensogram data was double-referenced against a reference anti-IgG surface (i.e. minus anti-C2 mAb) and blank buffer injections obtained within each experiment. The binding data was fit to 1:1 (kinetic or steady-state) model using local Rmax and null refraction index (RI=0) when appropriate. Buffers and solutions were filtered (0.22 μm) prior to use.
(§5) Calcium concentrations ranged from zero (i.e. no added calcium, control) to near physiological levels (0.02, 0.2 and 2 mM CaCl₂.2H₂O, MW 147.02 Da).

[14] = biological target: T2, human complement C2 zymogen; test: SPR kinetics, captured antibody, analyte huC2 (so in the source), pH 7.3; remark: listed apart in the source
Protocol: as §3, §4, §5

[15] = biological target: T2, human complement C2 zymogen; test: SPR steady state, captured antibody, analyte huC2 0 mM Ca^2+, pH 6.0; remark: listed apart in the source
Protocol: as §3, §4, §5

[16] = biological target: T2, human complement C2 zymogen; test: SPR kinetics, captured antibody, analyte huC2 20 mM Ca^2+ (so in the source), pH 7.3; remark: listed apart in the source
Protocol: as §3, §4, §5

[17] = biological target: T2, human complement C2 zymogen; test: SPR kinetics, captured antibody, analyte huC2 200 mM Ca^2+ (so in the source), pH 7.3; remark: listed apart in the source
Protocol: as §3, §4, §5

[18] = biological target: T2, human complement C2 zymogen; test: SPR kinetics, captured antibody, analyte huC2 2000 mM Ca^2+ (so in the source), pH 7.3; remark: listed apart in the source
Protocol: as §3, §4, §5

[19] = biological target: T2, human complement C2 zymogen; test: SPR steady state, captured antibody, analyte huC2 20 mM Ca^2+ (so in the source), pH 6.0; remark: listed apart in the source
Protocol: as §3, §4, §5

[20] = biological target: T2, human complement C2 zymogen; test: SPR steady state, captured antibody, analyte huC2 200 mM Ca^2+ (so in the source), pH 6.0; remark: listed apart in the source
Protocol: as §3, §4, §5

[21] = biological target: T2, human complement C2 zymogen; test: SPR steady state, captured antibody, analyte huC2 2000 mM Ca^2+ (so in the source), pH 6.0; remark: listed apart in the source
Protocol: as §3, §4, §5

[22] = biological target: T2, human complement C2 zymogen; test: SPR kinetics, captured antibody, analyte huC2 0 mM Ca^2+, pH 7.3; remark: listed apart in the source
Protocol: as §3

[23] = biological target: T2, human complement C2 zymogen; test: SPR steady state, captured antibody, analyte huC2 0 mM Ca^2+, pH 6.0; remark: listed apart in the source
[24] = biological target: T2, human complement C2 zymogen; test: SPR kinetics, captured antibody, analyte huC2 2 mM Ca^2+ (so in the source), pH 7.3
Protocol: as §3

[25] = biological target: T2, human complement C2 zymogen; test: SPR kinetics, captured antibody, analyte huC2 20 mM Ca^2+ (so in the source), pH 7.3; remark: listed apart in the source
Protocol: as §3

[26] = biological target: T2, human complement C2 zymogen; test: SPR kinetics, captured antibody, analyte huC2 200 mM Ca^2+ (so in the source), pH 7.3; remark: listed apart in the source
Protocol: as §3

[27] = biological target: T2, human complement C2 zymogen; test: SPR kinetics, captured antibody, analyte huC2 2000 mM Ca^2+ (so in the source), pH 7.3; remark: listed apart in the source
Protocol: as §3

[28] = biological target: T2, human complement C2 zymogen; test: SPR steady state, captured antibody, analyte huC2 20 mM Ca^2+ (so in the source), pH 6.0; remark: listed apart in the source
[29] = biological target: T2, human complement C2 zymogen; test: SPR steady state, captured antibody, analyte huC2 200 mM Ca^2+ (so in the source), pH 6.0; remark: listed apart in the source
[30] = biological target: T2, human complement C2 zymogen; test: SPR steady state, captured antibody, analyte huC2 2000 mM Ca^2+ (so in the source), pH 6.0; remark: listed apart in the source

T1 sequence (Q8SPV9 24-297 limits assumed, chain 1 of 2): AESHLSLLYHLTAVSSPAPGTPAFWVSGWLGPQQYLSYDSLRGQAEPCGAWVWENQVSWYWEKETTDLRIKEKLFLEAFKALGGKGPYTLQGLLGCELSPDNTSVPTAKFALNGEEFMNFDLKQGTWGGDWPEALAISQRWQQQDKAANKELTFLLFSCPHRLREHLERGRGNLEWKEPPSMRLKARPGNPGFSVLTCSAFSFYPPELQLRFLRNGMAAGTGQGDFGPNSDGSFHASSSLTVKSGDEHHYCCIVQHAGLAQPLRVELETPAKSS
T1 sequence (Q8SPW0 21-119 limits assumed, chain 2 of 2): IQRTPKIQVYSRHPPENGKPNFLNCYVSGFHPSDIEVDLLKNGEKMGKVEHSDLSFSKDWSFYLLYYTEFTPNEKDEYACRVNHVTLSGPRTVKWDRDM

B1: RF16-226 YEY (Fc mutations M252Y, N286E, N434Y) (antibody, human IgG4 S228P, lambda)
heavy: EVQLVQSGAEVKKPGESLKISCKGSGYSFTSYWIGWVRQMPGKGLEWMGIIYPGDSDTRYSPSFQGQVTISADKSISTAYLQWSSLKASDTAMYYCARRFSYSSGWDMWGQGTLVTVSSASTKGPSVFPLAPCSRSTSESTAALGCLVKDYFPEPVTVSWNSGALTSGVHTFPAVLQSSGLYSLSSVVTVPSSSLGTKTYTCNVDHKPSNTKVDKRVESKYGPPCPPCPAPEFLGGPSVFLFPPKPKDTLYISRTPEVTCVVVDVSQEDPEVQFNWYVDGVEVHEAKTKPREEQFNSTYRVVSVLTVLHQDWLNGKEYKCKVSNKGLPSSIEKTISKAKGQPREPQVYTLPPSQEEMTKNQVSLTCLVKGFYPSDIAVEWESNGQPENNYKTTPPVLDSDGSFFLYSRLTVDKSRWQEGNVFSCSVMHEALHYHYTQKSLSLSLGK
light: SYELTQPPSVSVSPGQTARITCSGDALTSKYVAWYQQKSGLAPLLVIYEDTRRPSGIPAKFSGSSSGSVATLTISGAHGDDEADYYCYSTDASGHQRVFGGGTKLTVLSQPKAAPSVTLFPPSSEELQANKATLVCLISDFYPGAVTVAWKADGSPVKAGVETTKPSKQSNNKYAASSYLSLTPEQWKSHRSYSCQVTHEGSTVEKTVAPTECS
Work on B1 yielded a Kd [1] of 19 nM, a Kd [2] of 2200 nM and a Kd [3] of 8.7 nM. For the same binder, the koff [3] was 0.00521 s⁻¹, the kon [3] was 601000 M⁻¹ s⁻¹ and the kon [4] was 538000 M⁻¹ s⁻¹. The Kd [5] was 84 nM, the Kd [6] was 8.8 nM and the koff [6] was 0.00516 s⁻¹. The kon [6] was 585000 M⁻¹ s⁻¹, the Kd [7] was 9.2 nM and the koff [7] was 0.00527 s⁻¹. The kon [7] was 573000 M⁻¹ s⁻¹, the Kd [8] was 10.7 nM and the koff [8] was 0.00573 s⁻¹. It also gave a Kd [9] of 81.9 nM, a Kd [10] of 86.9 nM and a Kd [11] of 105 nM.

B2: RF16-226 YTE (Fc mutations M252Y, S254T, T256E) (antibody, human IgG4 S228P, lambda)
heavy: EVQLVQSGAEVKKPGESLKISCKGSGYSFTSYWIGWVRQMPGKGLEWMGIIYPGDSDTRYSPSFQGQVTISADKSISTAYLQWSSLKASDTAMYYCARRFSYSSGWDMWGQGTLVTVSSASTKGPSVFPLAPCSRSTSESTAALGCLVKDYFPEPVTVSWNSGALTSGVHTFPAVLQSSGLYSLSSVVTVPSSSLGTKTYTCNVDHKPSNTKVDKRVESKYGPPCPPCPAPEFLGGPSVFLFPPKPKDTLYITREPEVTCVVVDVSQEDPEVQFNWYVDGVEVHNAKTKPREEQFNSTYRVVSVLTVLHQDWLNGKEYKCKVSNKGLPSSIEKTISKAKGQPREPQVYTLPPSQEEMTKNQVSLTCLVKGFYPSDIAVEWESNGQPENNYKTTPPVLDSDGSFFLYSRLTVDKSRWQEGNVFSCSVMHEALHNHYTQKSLSLSLGK
light: SYELTQPPSVSVSPGQTARITCSGDALTSKYVAWYQQKSGLAPLLVIYEDTRRPSGIPAKFSGSSSGSVATLTISGAHGDDEADYYCYSTDASGHQRVFGGGTKLTVLSQPKAAPSVTLFPPSSEELQANKATLVCLISDFYPGAVTVAWKADGSPVKAGVETTKPSKQSNNKYAASSYLSLTPEQWKSHRSYSCQVTHEGSTVEKTVAPTECS
In the case of B2, the Kd [12] is reported as 450 nM, the Kd [13] is reported as 8.5 nM and the koff [13] is reported as 0.00495 s⁻¹. It also gave a kon [13] of 584000 M⁻¹ s⁻¹, a kon [14] of 601000 M⁻¹ s⁻¹ and a Kd [15] of 74.3 nM. For the same binder, the Kd [16] was 7.9 nM, the koff [16] was 0.00521 s⁻¹ and the kon [16] was 657000 M⁻¹ s⁻¹. The Kd [17] was 8.3 nM, the koff [17] was 0.00543 s⁻¹ and the kon [17] was 653000 M⁻¹ s⁻¹. The Kd [18] was 9.9 nM, the koff [18] was 0.00592 s⁻¹ and the Kd [19] was 71 nM. For the same binder, the Kd [20] was 74.6 nM and the Kd [21] was 92.8 nM.

B3: RF16-226 YPY (Fc mutations M252Y, V308P, N434Y) (antibody, human IgG4 S228P, lambda)
heavy: EVQLVQSGAEVKKPGESLKISCKGSGYSFTSYWIGWVRQMPGKGLEWMGIIYPGDSDTRYSPSFQGQVTISADKSISTAYLQWSSLKASDTAMYYCARRFSYSSGWDMWGQGTLVTVSSASTKGPSVFPLAPCSRSTSESTAALGCLVKDYFPEPVTVSWNSGALTSGVHTFPAVLQSSGLYSLSSVVTVPSSSLGTKTYTCNVDHKPSNTKVDKRVESKYGPPCPPCPAPEFLGGPSVFLFPPKPKDTLYISRTPEVTCVVVDVSQEDPEVQFNWYVDGVEVHNAKTKPREEQFNSTYRVVSVLTPLHQDWLNGKEYKCKVSNKGLPSSIEKTISKAKGQPREPQVYTLPPSQEEMTKNQVSLTCLVKGFYPSDIAVEWESNGQPENNYKTTPPVLDSDGSFFLYSRLTVDKSRWQEGNVFSCSVMHEALHYHYTQKSLSLSLGK
light: SYELTQPPSVSVSPGQTARITCSGDALTSKYVAWYQQKSGLAPLLVIYEDTRRPSGIPAKFSGSSSGSVATLTISGAHGDDEADYYCYSTDASGHQRVFGGGTKLTVLSQPKAAPSVTLFPPSSEELQANKATLVCLISDFYPGAVTVAWKADGSPVKAGVETTKPSKQSNNKYAASSYLSLTPEQWKSHRSYSCQVTHEGSTVEKTVAPTECS
With B3 the Kd [1] was 8.7 nM, the Kd [2] was 1100 nM and the Kd [22] was 8.5 nM. For the same binder, the koff [22] was 0.00493 s⁻¹, the kon [22] was 578000 M⁻¹ s⁻¹ and the Kd [23] was 87.3 nM. The kon [24] was 572000 M⁻¹ s⁻¹, the Kd [25] was 8.4 nM and the koff [25] was 0.00526 s⁻¹. The kon [25] was 626000 M⁻¹ s⁻¹, the Kd [26] was 8.8 nM and the koff [26] was 0.00539 s⁻¹. The kon [26] was 612000 M⁻¹ s⁻¹, the Kd [27] was 10.2 nM and the koff [27] was 0.00584 s⁻¹. The Kd [28] was 83.1 nM, the Kd [29] was 91.9 nM and the Kd [30] was 102 nM.
